For assay [1], the target named is T1, purified rat recombinant TG2 protein (transgelin-2) (rat, UniProt Q5XFX0 1-199). Description: SPR. For orientation: SPR reads the build-up and loss of mass on a sensor chip optically.
Assay [2] concerns the target T1, purified rat recombinant TG2 protein …. Description: SPR. The source holds these as a separate data set.
The target of assay [3] is transgelin-2 (TG2) of rat airway smooth muscle cells (rat (endogenous in rat ASMCs), UniProt Q5XFX0 1-199). Put plainly: radioligand binding.

Like-named read-outs stand apart in the source and are kept apart here.

T1 sequence (Q5XFX0 whole entry): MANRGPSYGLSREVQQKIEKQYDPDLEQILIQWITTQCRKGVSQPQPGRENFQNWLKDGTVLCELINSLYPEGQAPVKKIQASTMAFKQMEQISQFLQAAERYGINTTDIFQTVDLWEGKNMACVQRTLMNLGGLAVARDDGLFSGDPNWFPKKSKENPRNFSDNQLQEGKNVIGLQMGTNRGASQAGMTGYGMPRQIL
Sequence of transgelin-2 (TG2) of rat airway smooth muscle cells (Q5XFX0 whole entry): as above

B1: 6×His tag MT-2 recombinant protein (rat metallothionein-2) (natural protein)
chain: not shown
In general, Kd refers to the equilibrium constant for the complex coming apart. As to B1, the dissociation constant (Kd) in assay [1] came out at 442 nM; in assay [2] it was 110 nM.

B2: 125I-labeled MT-2 (natural protein)
chain: not shown
modifications: 125I label (site not stated)
B2 showed a dissociation constant Kd in assay [3] of 33.4 nM.

The values above are taken from article PMC6310021 (Science translational medicine, 2018).
